Measurements taken from patent US20210130436A1 (published 2021).
Blank lines part the entries; values can stand above or below the binder they belong to.

How the values were obtained:
human CD28 = human CD28 (human, UniProt P10747 19-220); experiment: flow cytometry, Jurkat cells (CD28)
human CTLA-4 [1] = biological target: T1, human CTLA-4 (human, UniProt P16410 36-223); experiment: flow cytometry, CHO cells stably expressing CTLA4
T1 construct: also called huCTLA4

human CTLA4 on CHO cells = biological target: T2, human CTLA4 on CHO cells (human, UniProt P16410 36-223); experiment: flow cytometry, CHO cells stably expressing CTLA4
T2 construct: whole, on cells; CHO cells stably expressing CTLA4; also called huCTLA4
T2 sequence (P16410 36-223): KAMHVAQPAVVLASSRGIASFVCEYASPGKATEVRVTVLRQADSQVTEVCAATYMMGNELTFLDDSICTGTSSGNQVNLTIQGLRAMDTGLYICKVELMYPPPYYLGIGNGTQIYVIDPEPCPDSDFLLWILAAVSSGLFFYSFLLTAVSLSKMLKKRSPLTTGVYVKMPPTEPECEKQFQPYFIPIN

human PD-L1 on CHO cells = biological target: T3, human PD-L1 on CHO cells (human, UniProt Q9NZQ7 19-290); experiment: flow cytometry, CHO cells stably expressing PD-L1
T3 construct: whole, on cells; CHO cells stably expressing PD-L1; also called huPD-L1
T3 sequence (Q9NZQ7 19-290): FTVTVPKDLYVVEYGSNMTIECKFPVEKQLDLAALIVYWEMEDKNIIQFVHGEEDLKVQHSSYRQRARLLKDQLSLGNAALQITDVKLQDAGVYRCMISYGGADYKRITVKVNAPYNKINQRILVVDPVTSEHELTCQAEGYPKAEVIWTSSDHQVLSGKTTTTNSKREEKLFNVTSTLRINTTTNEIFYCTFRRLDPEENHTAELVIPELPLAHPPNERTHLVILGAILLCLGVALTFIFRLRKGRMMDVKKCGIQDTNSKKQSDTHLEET

[2] = biological target: T4, human CTLA4 (full-length, expressed on CHO cells) (human, UniProt P16410 36-223); experiment: flow cytometry, CHO cells expressing huCTLA4, PE anti-human Fc
T4 construct: also called huCTLA4
T4 sequence (P16410 36-223): as the sequence (P16410 36-223) above

[3] = biological target: T5, CD28 (endogenously expressed on Jurkat/IL2 reporter cells) (human, UniProt P10747 19-220); experiment: flow cytometry, Jurkat/IL2 reporter cells (endogenous CD28), PE anti-human Fc
T5 construct: Endogenous CD28 of Jurkat cells; also called human CD28

human PD-L1 [4] = biological target: T6, human PD-L1 (human, UniProt Q9NZQ7 19-290); experiment: flow cytometry, CHO cells stably expressing huPD-L1, 33.3 nM Fc fusion, PE anti-human Fc
T6 construct: whole, on cells; CHO cells stably expressing huPD-L1; also called huPD-L1

human CTLA-4 [5] = biological target: T7, human CTLA-4 (human, UniProt P16410 36-223); experiment: flow cytometry, CHO cells stably expressing huCTLA-4, 33.3 nM Fc fusion, PE anti-human Fc
T7 construct: whole, on cells; CHO cells stably expressing huCTLA4; also called huCTLA4

[6] = biological target: T8, CD28 on Jurkat/IL2 reporter cells (human, UniProt P10747 19-220); experiment: flow cytometry, Jurkat cells (CD28)
T8 construct: whole, on cells; Endogenous CD28 of Jurkat cells; also called Jurkats (CD28)

[7] = biological target: T9, human PD-L1 (full-length, expressed on CHO cells) (human, UniProt Q9NZQ7 19-290); experiment: flow cytometry, CHO cells expressing huPD-L1, PE anti-human Fc
T9 construct: also called huPD-L1; CD274
T9 sequence (Q9NZQ7 19-290): as the sequence (Q9NZQ7 19-290) above

[8] = biological target: T5, CD28 (endogenously expressed on …); experiment: flow cytometry MFI at 33.3 nM relative to WT CD80 ECD-Fc (R&D), Jurkat cells
[9] = biological target: T9, human PD-L1 (full-length, expressed on …); experiment: flow cytometry, MFI on CHO/huPD-L1 cells over MFI on Jurkat (CD28) cells, 33.3 nM
[10] = biological target: T9, human PD-L1 (full-length, expressed on …); experiment: flow cytometry MFI at 33.3 nM relative to WT CD80 ECD-Fc (R&D), CHO/huPD-L1 cells
human PD-L1 [11] = biological target: T10, human PD-L1 (human, UniProt Q9NZQ7 19-290); experiment: flow cytometry, CHO cells stably expressing PD-L1
T10 construct: also called huPD-L1; CD274

MFI at 33.3 nM (human CD28): 540 MFI
MFI at 33.3 nM (human CTLA-4 [1]): 20600 MFI
B1: CD80 IgV-Fc S21P/E35D/K37E/D46E/M47I/V68M (Fc fusion, not shown: a dimerising Fc or GST)
chain: VIHVTKEVKEVATLSCGHNVPVEELAQTRIYWQKDKEMVLTMMSGEINIWPEYKNRTIFDITNNLSIMILALRPSDEGTYECVVLKYEKDAFKREHLAEVTLSVKAD

MFI at 33.3 nM (human CTLA4 on CHO cells): 24600 MFI
MFI at 33.3 nM (human PD-L1 on CHO cells): 4880 MFI
B2: variant CD80 IgV-Fc E35D/M43I/M47L/L85M (Fc fusion, not shown: a dimerising Fc or GST)
chain: VIHVTKEVKEVATLSCGHNVSVEELAQTRIYWQKDKKMVLTMISGDLNIWPEYKNRTIFDITNNLSIVILALRPSDEGTYECVVMKYEKDAFKREHLAEVTLSVKAD

MFI at 33.3 nM (human CTLA4 on CHO cells): 20600 MFI
MFI at 33.3 nM (human PD-L1 on CHO cells): 6640 MFI
B3: variant CD80 IgV-Fc E35D/M47L/A71G (Fc fusion, not shown: a dimerising Fc or GST)
chain: VIHVTKEVKEVATLSCGHNVSVEELAQTRIYWQKDKKMVLTMMSGDLNIWPEYKNRTIFDITNNLSIVILGLRPSDEGTYECVVLKYEKDAFKREHLAEVTLSVKAD

MFI at 33.3 nM [2]: 2950 MFI
MFI at 33.3 nM [3]: 314 MFI
B4: variant CD80 IgV-Fc A26E/E35D/M43I/M47L/L85Q/K86E/R94W (Fc fusion, not shown: a dimerising Fc or GST)
chain: VIHVTKEVKEVATLSCGHNVSVEELEQTRIYWQKDKKMVLTMISGDLNIWPEYKNRTIFDITNNLSIVILALRPSDEGTYECVVQEYEKDAFKWEHLAEVTLSVKAD

MFI at 33.3 nM (human CD28): 284 MFI
MFI at 33.3 nM (human CTLA-4 [1]): 20100 MFI
B5: CD80 IgV-Fc S21P/E35D/K37E/D46E/M47I/V68M/R94L (Fc fusion, not shown: a dimerising Fc or GST)
chain: VIHVTKEVKEVATLSCGHNVPVEELAQTRIYWQKDKEMVLTMMSGEINIWPEYKNRTIFDITNNLSIMILALRPSDEGTYECVVLKYEKDAFKLEHLAEVTLSVKAD

MFI at 33.3 nM (human PD-L1 [4]): 55400 MFI
MFI at 33.3 nM (human CTLA-4 [5]): 13700 MFI
B6: variant CD80 IgV-Fc (inert) H18V/A26P/E35D/M47V/V68L/A71G (Fc fusion)
chain: VIHVTKEVKEVATLSCGVNVSVEELPQTRIYWQKDKKMVLTMMSGDVNIWPEYKNRTIFDITNNLSILILGLRPSDEGTYECVVLKYEKDAFKREHLAEVTLSVKAD
notes: not shown: inert human IgG1 Fc

MFI at 33.3 nM [6]: 23.7 MFI
MFI at 33.3 nM (human CTLA4 on CHO cells): 23300 MFI
B7: variant CD80 IgV-Fc E35D/M47V/L85M/R94Q (Fc fusion, not shown: a dimerising Fc or GST)
chain: VIHVTKEVKEVATLSCGHNVSVEELAQTRIYWQKDKKMVLTMMSGDVNIWPEYKNRTIFDITNNLSIVILALRPSDEGTYECVVMKYEKDAFKQEHLAEVTLSVKAD

MFI at 33.3 nM (human CD28): 191 MFI
MFI at 33.3 nM (human CTLA-4 [1]): 16900 MFI
B8: CD80 IgV-Fc V22D/E24D/E35D/M47V/V68M (Fc fusion, not shown: a dimerising Fc or GST)
chain: VIHVTKEVKEVATLSCGHNVSDEDLAQTRIYWQKDKKMVLTMMSGDVNIWPEYKNRTIFDITNNLSIMILALRPSDEGTYECVVLKYEKDAFKREHLAEVTLSVKAD

MFI at 33.3 nM [7]: 62100 MFI
MFI at 33.3 nM [2]: 28900 MFI
B9: variant CD80 IgV-Fc Q33L/E35D/M47V/T79A (Fc fusion, not shown: a dimerising Fc or GST)
chain: VIHVTKEVKEVATLSCGHNVSVEELAQTRIYWLKDKKMVLTMMSGDVNIWPEYKNRTIFDITNNLSIVILALRPSDEGAYECVVLKYEKDAFKREHLAEVTLSVKAD

MFI at 33.3 nM [7]: 67100 MFI
MFI at 33.3 nM [2]: 311000 MFI
B10: variant CD80 IgV-Fc E24D/Q33L/E35D/M47V/K54R/L85Q (Fc fusion, not shown: a dimerising Fc or GST)
chain: VIHVTKEVKEVATLSCGHNVSVEDLAQTRIYWLKDKKMVLTMMSGDVNIWPEYRNRTIFDITNNLSIVILALRPSDEGTYECVVQKYEKDAFKREHLAEVTLSVKAD

Fold change to WT [8]: 0.04 fold
Ratio of PDL1:CD28 [9]: 132 ratio
MFI at 33.3 nM [7]: 37400 MFI
Fold change to WT [10]: 4.7 fold
MFI at 33.3 nM [3]: 282 MFI
B11: variant CD80 IgV-Fc Q33L/E35D/M47I (Fc fusion, not shown: a dimerising Fc or GST)
chain: VIHVTKEVKEVATLSCGHNVSVEELAQTRIYWLKDKKMVLTMMSGDINIWPEYKNRTIFDITNNLSIVILALRPSDEGTYECVVLKYEKDAFKREHLAEVTLSVKAD

MFI at 33.3 nM (human PD-L1 [11]): 19000 MFI
B12: CD80 IgV-Fc V22D/E24D/E35D/M47L/V68M/L85M/D90G (Fc fusion, not shown: a dimerising Fc or GST)
chain: VIHVTKEVKEVATLSCGHNVSDEDLAQTRIYWQKDKKMVLTMMSGDLNIWPEYKNRTIFDITNNLSIMILALRPSDEGTYECVVMKYEKGAFKREHLAEVTLSVKAD
